According to patent US20190071489A1:
Several values for one entry are separate records, joined by “and”; a condition that tells them apart may be missing. Identical values can stand only once.

What was measured:
[1] = target: EBOV GP (Ebola virus , Mayinga) (UniProt Q05320); assay: cell-based or functional assay
[2] = target: EBOV GP (Ebola virus , Mayinga) (UniProt Q05320)
[3] = target: EBOV GP (Ebola virus , Mayinga) (UniProt Q05320); remark: listed apart in the source

Sequence of UniProt Q05320 (Q05320 33-501, chain 1 of 2): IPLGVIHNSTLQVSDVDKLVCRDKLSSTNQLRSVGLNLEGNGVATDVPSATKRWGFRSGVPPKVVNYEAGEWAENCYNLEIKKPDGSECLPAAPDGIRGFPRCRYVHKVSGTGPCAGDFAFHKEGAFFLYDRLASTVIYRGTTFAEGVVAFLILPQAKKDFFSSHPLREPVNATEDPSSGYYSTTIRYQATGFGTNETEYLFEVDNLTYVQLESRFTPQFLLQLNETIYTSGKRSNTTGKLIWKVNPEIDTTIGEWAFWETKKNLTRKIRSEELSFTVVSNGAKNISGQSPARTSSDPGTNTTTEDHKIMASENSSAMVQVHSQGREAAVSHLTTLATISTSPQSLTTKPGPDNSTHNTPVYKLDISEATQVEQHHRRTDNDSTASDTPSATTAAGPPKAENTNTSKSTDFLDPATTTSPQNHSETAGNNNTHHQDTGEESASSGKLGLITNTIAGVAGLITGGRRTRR
Sequence of UniProt Q05320 (Q05320 502-650, chain 2 of 2): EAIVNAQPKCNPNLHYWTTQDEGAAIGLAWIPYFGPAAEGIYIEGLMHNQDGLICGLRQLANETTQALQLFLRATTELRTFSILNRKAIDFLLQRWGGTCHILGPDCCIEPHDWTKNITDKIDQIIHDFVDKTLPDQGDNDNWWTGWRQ

Q: For 13C6 (antibody), which neutralization at 10 µg/mL [1] is on record?
A: < 20%

Q: KZ52 (antibody) was tested. Which maximum inhibition of input virus [1] did it give?
A: 80% and 90%

B1: EVB100 (antibody, V domains shown)
VH: QVQLQESGPGLVKPSDTLSLTCTVSGGSLSSFYWSWIRQPPGKGLEWIGYIYYSGSPNYSPSLESRVTMSVDTTRNQISLKLDSVTAADTAVYYCVRASRSYYWGSYRPTAFDSWGQGTLVTVSS
VL: SYELTQPLSVSVSPGQTAIFTCSGDNLGDKYVCWFQQRPGQSPMLLIYQDNKRPSGIPERFSGSNSGNTATLTISGTQSTDEADYYCQTWDSTVVFGGGTKLTVL
Q: What does the source list for B1?
A: maximum inhibition of input virus [1]: 100%; EC50 [2]: 0.26 µg/mL

B2: EVB167 (antibody, V domains shown)
VH: AVQLVQSGAEVKKPGTTVKISCKVSGYTFIQEYIHWVQQAPGKGLVWMGLGDPENNETLYSEDFQGRVTMTADTSSDTAYLELRSLTFADTAVYFCTSRKSWWGQGTLVTVAS
VL: ELVLTQSPGTLSLSPGESATLSCRASQSLSSDSVSWFQQKPGQAPRLVIHGTSKRATGIPDRFSGGGSGTDFTLTIARLEPEDFAVYYCQRSGYGMSVTWTFGQGTTVEIK
Q: Which results are given for B2?
A: Abs 450 (1/27) [3]: 2.97 Abs 450; Abs 450 (Und.) [3]: 3.37 Abs 450

B3: EVB114 (antibody, V domains shown)
VH: EVQLVESGGGLIQPGGSLRLSCAASGFALRMYDMHWVRQTIDKRLEWVSAVGPSGDTYYADSVKGRFAVSRENAKNSLSLQMNSLTAGDTAIYYCVRSDRGVAGLFDSWGQGILVTVSS
VL: DIQMTQSPSSLSASVGDRITITCRASQAFDNYVAWYQQRPGKVPKLLISAASALHAGVPSRFSGSGSGTHFTLTISSLQPEDVATYYCQNYNSAPLTFGGGTKVEIK
Q: How did the maximum inhibition of input virus [1] turn out when B3 was run?
A: 100%

Q: What about the EC50 [2] of the same molecule?
A: 0.07 µg/mL

Q: And the maximal binding, higher than the other antibodies [2]?
A: 100%

B4: EVB165 (antibody, V domains shown)
VH: DVQLVESGGGVVQPGGSLKLACVVSGFRFSDYWMSWVRQAPGKGLEWVANIKQDGSGKYYVDSVKGRFTVSRDNAKNSLYLHMTSLGAEDTAVYFCARAAPTGSYTNILVDNVHFDYWGQGILVAVSS
VL: GIQLTQSPGSLSASVGDSVTITCRPNQNIATYINWYQQTPGKAPKLLIYAASILQSGVPSRFSGAGSGTHFTLIISTLQPEDSATYYCQQSYSTPWTFGQGTKVEIK
Q: With B4 as the molecule, how does the Abs 450 (1/27) [3] read?
A: 1.72 Abs 450

Q: And the Abs 450 (Und.) [3]?
A: 3.17 Abs 450

Q: And the maximum inhibition of input virus [1]?
A: 100%

Q: What about the EC50 [2] of the same molecule?
A: > 1 µg/mL
